Data as given in article PMC5912465.

Biological target: CCL8 (human chemokine panel) (human) (UniProt P80075)
Sequence (P80075 24-99): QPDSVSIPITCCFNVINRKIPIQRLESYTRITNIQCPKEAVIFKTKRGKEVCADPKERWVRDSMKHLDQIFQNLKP

“P672(1_44)-EVA1(29_94) hybrid evasin (from UniProt L7MC74;P0C8E7)” gave an IC50 of neutralization of CCL8-induced THP-1 monocyte cell migration (EC80 dose of CCL8) of 48 nM.
